# Results from the DeepSol protein solubility set.
# Experiment: soluble on expression in E. coli; label from the status in PepcDB or PDB records
row,Sequence,soluble on expression in E. coli
1,MGSDKIHHHHHHMKVILHIGAHRCATRSFQNYMTRKSDTLSQYGIAFMGPERTRNGLLHGIQPGAISVTGRDPMARARGRIALQLAGLQNAGTASVVISDASMLQPLEQCFALGALYPAAGEHLARLDHAFDGAVSDVMLNIRSPEMFWASALAVRLEHSLRMPNAATLSRIAEATRSWRDVIQDIYCAMPGARIRVFPYEVFATQPEAQLSAVTGVDCPHARGAFRLNASARLPELRAELPPRLAKLLPEDEGRWMPFSEAEAARLRESYYDDMMWLVGGADGLAELVEDPNKADATATPPAPDLVVQEDLTRGRMHDPDTGRLAGTG,not soluble
2,MGSDKIHHHHHHMKVKVGVVGATGEVGRTMVKVLEEFNVPVTELRLFASERSVGKEIEFKGEKFKVELLTEESMKWKCDYFLFSAGASVSRKFAPIAAENGVTVIDNSSAFRMEKEIPLVVPEVNAYLLKGYTGIIANPNCSTIQMILSIYKLHEVYGIEEIFVSTYQSVSGAGHKGIEELLAQERGENVMKVFPKPIHRNVIPLIGDIQENLFSQEEMKMVNETRKILNDYSIRVYPTTVRVPVLYGHSEAIMVRLKKPYESLEKVREVIASGEDVVVTDDLITPVDVAGKNETYVCRLRATDERSILFWNVADNIRVGAATNAVRILLKHAEMNGKV,not soluble
3,MGSDKIHHHHHHMKVLHLIDSGGLYGAERMLLALVAEQIQQGLEPMILSAGEQGIHQKPLEIEAEKLGLPLVVWRMTPGLNYPETRKICEWAEHWGVDLVHSHGYKFNILMSLFSRFSRKVPVVSTLHGYVHAPRFSRMWVYELLDRLAISRLDGVIMVGAAMKKELSTGLIRPRRLTTIRNGLAVDDTQRKATEPLPEALEEFFSTHEPVILGVGRLSKEKGFSHLVDSFREIKQSAPKAGLLIVGDGMLRKDLEDQVARLGLGSDVCLPGYCDNVPALMARSSALVISSSTEGLPITLLEAMAVRLPVVSTDVGEISFVLDEGDSGVLVKDPASELVDAIELVLNETEATHRKTEQAFHKVSGELSARSMAEQYLRVYNGVVAS,not soluble
4,MGSDKIHHHHHHMKVLIITNLFPLNNNSNSGIFVVQRLRHYKSFNVNLDTISLGHHNSKIASLLEKLLRGHSNKKTLEEVENVKFYPVSIEINLLRLIKYGLLRNYFTVLCKEYKKMIEEAFNLNEYDLIHAHGMYSVPAGLTAKILAEKYRKPFIVTLHGSDVNLFMPHRKEIYVSILESASATIFVSKALLEKAKSLGFSGKNAVVIPNGYDETIFKPMDKEAVRKELGIHREGYKYVGFVGNLIPIKRADKLGEIFHLIAKEIPETFFIIVGDGPLRKKIEKETKGLNIIFTGRLPQKDVAKYMNAMDVMVLPSRNEGWPCVILEAQACGTCVIGSSNRGIPEAIGFPEYVVEEGDQFEERFARRVVEVLNEGYDVNRILERAKGFTWRNIVEKEIDVHKRVVLKS,not soluble
5,MGSDKIHHHHHHMKVLQFNQDATCCVVAASSHQISIFNCDPFGKCFEIDTKNSKKKTSNNNGSASNSESRNNEESILITNGSRDRTDAEEEEDNEDNALVTGNILKEGEFVIEMLFSTSLIAIADRGQGLNKGKKLKIVNTKRKCTICEIVFPHEIVDVVMNRKRMCVLLESDQIFIYDISCMKPLETIDLWEDHYKRSQANSFSNASNTGTLEGDSANLNRVATNLLANATQKSVNGSNPSVRTRRNSLRSKIRPRMVLSNDDRSILCFTAYSSPKKNKPNSEALYDVVIYDTLNVTPVNYLNSVHKGNVACLAVSHDGKLLATASDKGTIIRVFHTGVDSDYMSSRSLFKEFRRGTRLCNLYQLAFDKSMTMIGCVGDTDTIHLFKLDDASNSLPGDNSSNGHWNEEEYILASNSNPSMGTPKEIPLSKPRIANYFSKKIKSSIPNQNLSRNFAYITVNESNRSCLGFPDEFPNQVYIASDDGTFSIYSIPSKPGECVLTKNNKFT,not soluble
6,MGSDKIHHHHHHMKVNILMSTYNGQEFIAQQIQSIQKQTFENWNLLIRDDGSSDETPKIIADFAKSDARIRFINADKRENFGVIKNFYTLLKYEKADYYFFSDQDDVWQPQKLELTLASVEKENNQIPLMVYTDLTVVDRDLQVLHDSMIKTQSHHANTSLLEELTENTVTGGTMMVNHCLAKQWKQCYDDLIMHDWYLALLAASLGKLIYLDETTELYRQHESNVLGARTWSKRLKNWLRPHRLVKKYWWLVTSSQQQASHLLELDLSAANKAIIQAYVTLLDQSFLNRIKWLKQYGFAKNRAFHTFVFKTLIITKFGYRRK,not soluble
7,MGSDKIHHHHHHMKVSADIGALVERRKQGYSLEAPFYQSEEIFALDMEAIFRKHWIQVAVEPDVPEPGDYITVELGHDSILVVRDDDMQVRAFHNVCRHRGARLCNEDKGTVGNIVCPYHSWTYNLTGDLMFAEHMGEKFDRCKHSLKSVHVQNLAGLIFVCLADEPPADFAAMRAAMEPYLLPHDLPNTKIAAQVDIIEEGNWKLTMENNRECYHCVANHPELTISLYEYGFGYQQSPANAEGMEAFEKTCIARAAQWEALNLPSAEIERLLERTGFRTQRLPLDRSGESQTLDAKVASKKLLGKFEQADLGGLSFWTQPNSWHHFMSDHIVTFSVIPLSAGKTLVRTKWLVHKDAQEGVDYDVANLTAVWNATNDQDRVLVEYSQRGSASSAYEPGPYSPFTEGLVEKFSAWYIRRLAEHVGA,not soluble
8,MGSDKIHHHHHHMKWYADYLSIYDKPFTQAPQAVINQVKDKVRQLATHAPLVSVVAIAHNEEKRILSCLWSLCENQHNYPVEILVINNHSTDHTEEVLKELGVTYFNEYRKGPGFARQCGLNHARGKYHLCIDADTLYPPQYISTMIKVLQDKEVAGAYALWSFLPNEHHLGLFFYETLRDLYLKIQNLNRPELNVRGMAFAFHTETARKEGFRTDILRGEDGSLALALKKYGKLRFVTARKARVLTGYGTISADGSLFSSFKKRAIKGLRSFTALFYSKNNYEDEDSNLIK,not soluble
9,MGSDKIHHHHHHMKYLLLIPDGMADWEVEELDGRTPLEVAETENMDFLAKEGACGIAKTVPDGFEPGSDVANLTILGVDVRKHYTGRGPIEALARGVKGKLVFRCNLVKVEDGVMVDYSGGRISDEEARKVIEELNRAKPYDFVKFYAGKSYRNLLVINKDFRDDVKTFPPHDITGKEIDKHLPSGGELAELLKELMGWSAEILPEITDKANMIWPWGGGRMPSFPNFGQRYGLRGAMITEVDLLEGIARGMGMEVVQVEGITGYIDTNYRGLVRETARALEEHDFVVLHTEGIDEVGHEGDAELKVRAIELYDSKIVGKLLNKVDLDETRILLLPDHPTPVKVKTHVAEPVPFTLYGRGRDEVKVYTEKSCRRGKFGLVDGLRLMDLLIKK,not soluble
10,MGSDKIHHHHHHMLAICQLVKMKRICFYLKMQKGYMALNKKLKGDGEVLKDSFLAGAGKAKIVFSQDDFPIKQFTGIHDNLYIRVLLIDSNQRFAFVSIDLTSLTKDRIDFYKSLIHQLTSIDEGNIWVSVTHTFSAPHIPLESQKDDEEKIISMMLFKTSAALREAINQALLSMKPADIGFSYSSCPLNINRNIPTRLGWWLGRNDDGYSNHDVRTVTLKQENNEIISILYNFDVQASVMDNVSTKSGELLISSDLVGKASSDIENTFGKNSVAIFLPGSAGDQAPIFKGSNWKIMKNNRLVCSSIHEEAYSLVDQLGVKLSQSVQRAVFKTEKFADNCEIKINHYSVYLPEQRVKYSTKALRPSKKYQFEKPVIHFLSLLIFCT,not soluble
11,MGSDKIHHHHHHMLCAISGKVPRRPVLSPKSRTIFEKSLLEQYVKDTGNDPITNEPLSIEEIVEIVPSAQQASLTESTNSATLKANYSIPNLLTSLQNEWDAIMLENFKLRSTLDSLTKKLSTVMYERDAAKLVAAQLLMEKNEDSKDLPKSSQQAVAITREEFLQGLLQSSRDFVARGKLKAPKWPILKNLELLQAQNYSRNIKTFPYKELNKSMYYDKWVCMCRCEDGALHFTQLKDSKTITTITTPNPRTGGEHPAIISRGPCNRLLLLYPGNQITILDSKTNKVLREIEVDSANEIIYMYGHNEVNTEYFIWADNRGTIGFQSYEDDSQYIVHSAKSDVEYSSGVLHKDSLLLALYSPDGILDVYNLSSPDQASSRFPVDEEAKIKEVKFADNGYWMVVECDQTVVCFDLRKDVGTLAYPTYTIPEFKTGTVTYDIDDSGKNMIAYSNESNSLTIYKFDKKTKNWTKDEESALCLQSDTADFTDMDVVCGDGGIAAILKTNDSFNIVALTP,not soluble
12,MGSDKIHHHHHHMLDKRAQILLKTLIEHYISDGQPVGSRKLSVASGLDLSPASIRNIMSELEDHGFIASPHTSAGRIPTQRGYRLFVDTLLTVQPLQNQEIRKLENVLSSPDPQELINKAAELLSSLTHFAGLVMIPKRQGAAFRHLEFLPLSEKRILVIIVTTDGAVQNRIILAEKPYSASDLTQASNFFNQHYAGNTLDEVKQKLHEELKQMQSDMTRLMAAALEASSKTADNKDGVVIAGKRNLLDVQDLSTNVSSLRKLFEMFEHRTSLMQLLDQSQKASGVQIFIGGESGYLPLDECSMVTAPYETNGQTIGTLGVIGPTRMAYERVIPIVDITAKLLSNALSNNH,not soluble
13,MGSDKIHHHHHHMLDQQHIQYFKNLVGGEDFFTDLAHLNAYCYDATKERHLPSGVIFPKNEQEISQILKYCNEHRIIVVPRGAGSGFTGGALSVSGGLVLSVEKHLDKILEIDTKNLIARVEPGVINKHFQNEVEKLNLFYPPDPASENQSTLGGNVAENAGGMRAAKYGITKDYVMALRVVLANGEIIRAGKKTIKDVAGFNVAGLMIASEGCLGVISEITLKLLAKPPLKQSAMGVFNHIEDAMNAVYKTMSSGVTPVAMEFLDNLSIKAVEERFSKGLPKDAGAILITQVDGVVKEQIAWQLNEIEKHFKANCCVDFKIAQNEQEEQDLWFSRRNASQSISVYGKKKLNEDVTVPRASLPSLLQEVAKISQKYGFKIPCFGHTGDGNVHVNIMLEDPKRDLEKGHEAMEEIFQAAISLEGTLSGEHGIGLSKAKFMPLAFNHSEMELFRNIKKALDPNNILNPFKMGL,not soluble
14,MGSDKIHHHHHHMLDSYIKRIVIHQFSPNDTELLLSDRLVSITPRIDEYFRKKLAKVFSDEAKRGQFEANNTFFTTIGDDLLETSVTIAQLWKEAFVISEDQKTNDLVFVQFDKDGEPFFAFLRIALKEQFAHLSDNYEHPFTVTQNNLPSPTQTPDEALVINLKSGQYYLIEKRVKHNGSFANYFSEHLLKVTPEQSVKKSIKMIEQTAQKIAEHFNQDDFTFQSKMKSTLFKQLEADDVLSPEKLADQLFDDNLTARLTFVDQVKDVIPEPIKISDIEHSRQIKKLENQKLSLSNGIELTVPNAIYQDAEAVEFLLNDDGTYSILIKNIEDIKTK,not soluble
15,MGSDKIHHHHHHMLENTGLVLEGGGMRGVYTGGILEYFMEQDLYFPYVIGVSAGACHAASYLSRQRNRNKTVNIDYASHPKYLSYKNLWRKRQLFDMDFIFHEIPEKHVPFDFETYFNSPERFLVGTTDCETGQSVYFEKEGTNDDALNLLQASSSLPFIAPVVNYRGKQLLDGGISDPIPVRKAQEDGFKKSVVILTRNHGYAKKKSRFGWIAAKAYKKYPNLVNTMLNRYEVYNETLHYIEKEEQAGNLFVIRPEVPLQVDRMEKDTAKLQNLYEQGYEDAKRQFADLKAFLQK,not soluble
16,MGSDKIHHHHHHMLFFSFILLPELDVTMEDSGRRIKNEYRAWKERKMTKLTVGLALGSGAAKGWAHIGVLNGLAKLDIYPDKVAGCSVGALVGAAYANNHLGELETWVSGFSSWDVLGLMDLGWRKGGLISGEKVFDVLANRIGDIDIEQLNRPFAAVATDLYSGQEIWFKEGDLRHAVRASCSMPGFLPPVQQGHRWVVDGAVVNPVPVSLARSMGVDVVIAVDLNGHRRGQMHLIPEQVKSRKASKSEPIDEKRELESGFMDLWGKGKDYMNGLTDKFSLGSSKSHPGMLAVMSQSMDILEQRHKRSRLMGEPPDICIVPDVGDIGTMEFHRAKEAIKAGEQAVNDIKHLIEATLK,not soluble
